The source of these data is the RNAGym collection of RNA variant scans (doi:10.7554/elife.80360).

The chains are these.
B1: CPEB3 Ribozyme (parent)
chain: GGGGGCCACAGCAGAAGCGUUCACGUCGCGGCCCCUGUCAGAUUCUGGUGAAUCUGCGAAUUCUGCUGU

The variants in the data set derive from B1. Put plainly: self-cleavage, relative activity (ratio to wild type); higher = more cleavage; co-transcriptional.
GGGGGCCACAGCAGAAGCGUUCACGUCGCGGCCCCUUUCAGAUUCUGGUGAAUCUGCGCAUUCUGCUGU [G37U A59C]: the self-cleavage was 0.218. With GGGGGCCACAGCAGAAGCGUUCACGUCGCGGCCCCUUUCAGAUUCUGGUGAAUCUGCGGAUUCUGCUGU [G37U A59G] the figure was 0.412; with GGGGGCCACAGCAGAAGCGUUCACGUCGCGGCCCCUGCCAGAUUCUGGUGAAUCUGAGAAUUCUGCUGU [U38C C57A], 0.3. Consider GGGGGCCACAGCAGAAGCGUUCACGUCGCGGCCCCUGCCAGAUUCUGGUGAAUCUGUGAAUUCUGCUGU [U38C C57U], for which the self-cleavage was 0.409.

Regarding GGGGGCCACAGCAGAAGCGUUCACGUCGCGGCCCCUGCCAGAUUCUGGUGAAUCUGCGAUUUCUGCUGU [U38C A60U], the self-cleavage was found to be 0.331. Take GGGGGCCACAGCAGAAGCGUUCACGUCGCGGCCCCUUUCAUAUUCUGGUGAAUCUGCGAAUUCUGCUGU [G37U G41U]: the self-cleavage came out at 0.201. GGGGGCCACAGCAGAAGCGUUCACGUCGCGGCCCCUGACAGAUCCUGGUGAAUCUGCGAAUUCUGCUGU [U38A U44C]: the self-cleavage is 0.802. Take GGGGGCCACAGCAGAAGCGUUCACGUCGCGGCCCCUGACAGAUUCUGGUGAAUCUUCGAAUUCUGCUGU [U38A G56U]: the self-cleavage was determined as 0.875. On to GGGGGCCACAGCAGAAGCGUUCACGUCGCGGCCCCUGACAGAUUCUGGUGAAUCUCCGAAUUCUGCUGU [U38A G56C], for which the self-cleavage stood at 0.466. As for GGGGGCCACAGCAGAAGCGUUCACGUCGCGGCCCCUGCCAGAUUCUGGUGUAUCUGCGAAUUCUGCUGU [U38C A51U], the figure is 0.935; as for GGGGGCCACAGCAGAAGCGUUCACGUCGCGGCCCCUGCCAGAUUGUGGUGAAUCUGCGAAUUCUGCUGU [U38C C45G], 0.92. As for GGGGGCCACAGCAGAAGCGUUCACGUCGCGGCCCCUGCCAGAUUCUGGUGAAUAUGCGAAUUCUGCUGU [U38C C54A], the figure is 0.61; as for GGGGGCCACAGCAGAAGCGUUCACGUCGCGGCCCCUUUCAGAUUCUGGUGUAUCUGCGAAUUCUGCUGU [G37U A51U], 0.252.

In the case of GGGGGCCACAGCAGAAGCGUUCACGUCGCGGCCCCUUUCAGAUUCUGGUGGAUCUGCGAAUUCUGCUGU [G37U A51G], the self-cleavage amounted to 0.266.

With GGGGGCCACAGCAGAAGCGUUCACGUCGCGGCCCCUUUCAGAGUCUGGUGAAUCUGCGAAUUCUGCUGU [G37U U43G], the self-cleavage came to 0.298. With GGGGGCCACAGCAGAAGCGUUCACGUCGCGGCCCCUUUCAGAUUCUGGUGAAACUGCGAAUUCUGCUGU [G37U U53A] the figure was 0.195; with GGGGGCCACAGCAGAAGCGUUCACGUCGCGGCCCCUUUCAGAUUCUGGUAAAUCUGCGAAUUCUGCUGU [G37U G50A], 0.284; with GGGGGCCACAGCAGAAGCGUUCACGUCGCGGCCCCUUUCAGAUUCUGGUCAAUCUGCGAAUUCUGCUGU [G37U G50C], 0.315. With GGGGGCCACAGCAGAAGCGUUCACGUCGCGGCCCCUGACAGAUUCUGGUGAAUCUGCCAAUUCUGCUGU [U38A G58C] the figure was 0.921. For GGGGGCCACAGCAGAAGCGUUCACGUCGCGGCCCCUGACAGAUUCUGGUGAAGCUGCGAAUUCUGCUGU [U38A U53G], the self-cleavage was 0.706. With GGGGGCCACAGCAGAAGCGUUCACGUCGCGGCCCCUGACAGAUUCUGGUGAAACUGCGAAUUCUGCUGU [U38A U53A], the self-cleavage worked out at 0.864. For the variant GGGGGCCACAGCAGAAGCGUUCACGUCGCGGCCCCUGACAGAUUCUGGUGAAUCUGCGAAUUCUGCUGC [U38A U69C], the self-cleavage stood at 1.03.

GGGGGCCACAGCAGAAGCGUUCACGUCGCGGCCCCUGACAGAUUCUGGUGAAUCUGCGAAUUCUGCUGG [U38A U69G]: the self-cleavage worked out at 0.971. For the variant GGGGGCCACAGCAGAAGCGUUCACGUCGCGGCCCCUUUCAGAUCCUGGUGAAUCUGCGAAUUCUGCUGU [G37U U44C], the self-cleavage is 0.188. Turning to GGGGGCCACAGCAGAAGCGUUCACGUCGCGGCCCCUGCCAGAUUCUGGUGAAUCUGCGGAUUCUGCUGU [U38C A59G], the self-cleavage came out at 1.01. As for GGGGGCCACAGCAGAAGCGUUCACGUCGCGGCCCCUGCCAGAUUCUGGUGAAUCUGCGCAUUCUGCUGU [U38C A59C], the figure is 0.306; as for GGGGGCCACAGCAGAAGCGUUCACGUCGCGGCCCCUGACAGAUUUUGGUGAAUCUGCGAAUUCUGCUGU [U38A C45U], 0.918. On to GGGGGCCACAGCAGAAGCGUUCACGUCGCGGCCCCUGACAGAUUAUGGUGAAUCUGCGAAUUCUGCUGU [U38A C45A], for which the self-cleavage was found to be 0.875. On to GGGGGCCACAGCAGAAGCGUUCACGUCGCGGCCCCUGACAGAUUCUGGUGGAUCUGCGAAUUCUGCUGU [U38A A51G], for which the self-cleavage was 0.89. Consider GGGGGCCACAGCAGAAGCGUUCACGUCGCGGCCCCUGACAGAUUCUGGUGCAUCUGCGAAUUCUGCUGU [U38A A51C], for which the self-cleavage amounted to 0.908. For the variant GGGGGCCACAGCAGAAGCGUUCACGUCGCGGCCCCUGACAGAUUCUGGUGAAUCUGCGAAUUCUACUGU [U38A G65A], the self-cleavage turned out to be 0.733. With GGGGGCCACAGCAGAAGCGUUCACGUCGCGGCCCCUGCCAGAUUCUGGUGAGUCUGCGAAUUCUGCUGU [U38C A52G] the figure was 0.909. As to GGGGGCCACAGCAGAAGCGUUCACGUCGCGGCCCCUGCCAGAUUCUGGUGAUUCUGCGAAUUCUGCUGU [U38C A52U], the self-cleavage was 0.895.

As to GGGGGCCACAGCAGAAGCGUUCACGUCGCGGCCCCUGACAGAUUCUGGUGAAUCUGCGAAUUCUGCCGU [U38A U67C], the self-cleavage worked out at 0.943. As for GGGGGCCACAGCAGAAGCGUUCACGUCGCGGCCCCUUUCAGAUUCUGGUGAAUCUGCGAAUUCUGCUGG [G37U U69G], the figure is 0.354; as for GGGGGCCACAGCAGAAGCGUUCACGUCGCGGCCCCUUUCAGAUUCUGGUGAAUCUGCGAAUUCUGCUGA [G37U U69A], 0.358; as for GGGGGCCACAGCAGAAGCGUUCACGUCGCGGCCCCUGACAGAUUCUGGUGACUCUGCGAAUUCUGCUGU [U38A A52C], 0.898.

As for GGGGGCCACAGCAGAAGCGUUCACGUCGCGGCCCCUGAAAGAUUCUGGUGAAUCUGCGAAUUCUGCUGU [U38A C39A], the self-cleavage is 0.748. With GGGGGCCACAGCAGAAGCGUUCACGUCGCGGCCCCUGAGAGAUUCUGGUGAAUCUGCGAAUUCUGCUGU [U38A C39G], the self-cleavage is 0.994.
